# Patent publication US20100216715A1 (Novo Nordisk, published 2010)
# T1: human beta-Klotho (human, UniProt Q86Z14 1-1044)
# T1 sequence (looked up): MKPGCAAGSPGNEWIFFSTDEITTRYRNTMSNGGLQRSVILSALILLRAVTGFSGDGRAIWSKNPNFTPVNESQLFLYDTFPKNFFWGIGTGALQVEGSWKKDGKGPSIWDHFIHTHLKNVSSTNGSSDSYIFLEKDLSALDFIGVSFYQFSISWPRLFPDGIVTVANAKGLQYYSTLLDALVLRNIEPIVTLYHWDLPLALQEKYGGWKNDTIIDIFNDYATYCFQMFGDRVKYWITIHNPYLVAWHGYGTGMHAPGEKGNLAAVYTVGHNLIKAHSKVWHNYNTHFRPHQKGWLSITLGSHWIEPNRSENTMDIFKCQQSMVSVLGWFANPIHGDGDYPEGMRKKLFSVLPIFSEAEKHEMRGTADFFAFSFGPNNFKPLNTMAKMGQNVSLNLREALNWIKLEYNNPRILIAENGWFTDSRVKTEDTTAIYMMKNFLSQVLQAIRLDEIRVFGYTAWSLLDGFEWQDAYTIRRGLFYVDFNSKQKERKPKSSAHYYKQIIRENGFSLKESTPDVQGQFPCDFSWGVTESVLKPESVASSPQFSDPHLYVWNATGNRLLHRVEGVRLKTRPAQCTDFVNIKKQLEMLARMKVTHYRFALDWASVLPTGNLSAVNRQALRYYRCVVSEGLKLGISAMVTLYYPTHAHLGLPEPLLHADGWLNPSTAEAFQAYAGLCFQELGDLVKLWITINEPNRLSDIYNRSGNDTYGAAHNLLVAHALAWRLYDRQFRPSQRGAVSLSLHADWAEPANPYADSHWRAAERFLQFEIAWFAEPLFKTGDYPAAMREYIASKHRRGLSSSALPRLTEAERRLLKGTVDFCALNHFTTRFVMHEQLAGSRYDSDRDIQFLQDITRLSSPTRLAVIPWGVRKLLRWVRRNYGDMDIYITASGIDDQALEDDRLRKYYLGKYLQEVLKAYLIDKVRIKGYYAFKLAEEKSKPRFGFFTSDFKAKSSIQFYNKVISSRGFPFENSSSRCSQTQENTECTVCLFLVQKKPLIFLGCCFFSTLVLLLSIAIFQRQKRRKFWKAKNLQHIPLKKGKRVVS
# Biological target: T1, human beta-Klotho
# Assay: cell-based or functional assay
row,Binder,pERK-HEK293-Beta-klotho without HSA [EC50 (nM)] Median Value
1,"[28R, K56R, 59R, 69R, 102T, 121Q, 122R, 168L, 179F, 180E, 181R] Gly-FGF21 derivative of Example 47 (ligand, N-alpha-1-[2-(2-{2-[2-(2-{2-[(S)-4-carboxy-4-(17-carboxy-heptadecanoylamino)-butyrylamino]-ethoxy}-ethoxy)-acetylamino]-ethoxy}-ethoxy)-acetyl] on the N-terminal alpha amino group) GHPIPDSSPLLQFGGQVRQRYLYTDDAQRTEAHLEIREDGTVGGAADQSPESLLQLRALRPGVIQILGVRTSRFLCQRPDGALYGSLHFDPEACSFRELLLETGYNVYQSEAHGLPLHLPGQRSPHRDPAPRGPARFLPLPGLPPALPEPPGILAPQPPDVGSSDPLSLVGPSQGRSPSFER",10 nM
2,"(Q28R, K56R, K59R, K69R, D102T, N121Q, K122R, D159E, M168L, G174A, Y179F) Gly-FGF21 (ligand) GHPIPDSSPLLQFGGQVRQRYLYTDDAQRTEAHLEIREDGTVGGAADQSPESLLQLRALRPGVIQILGVRTSRFLCQRPDGALYGSLHFDPEACSFRELLLETGYNVYQSEAHGLPLHLPGQRSPHRDPAPRGPARFLPLPGLPPALPEPPGILAPQPPEVGSSDPLSLVGPSQARSPSFAS",15 nM
3,"(Q28R, K56R, K59R, K69R, D102T, N121Q, K122R, L166F, S167G, M168L, G170T) Gly-FGF21 (ligand) GHPIPDSSPLLQFGGQVRQRYLYTDDAQRTEAHLEIREDGTVGGAADQSPESLLQLRALRPGVIQILGVRTSRFLCQRPDGALYGSLHFDPEACSFRELLLETGYNVYQSEAHGLPLHLPGQRSPHRDPAPRGPARFLPLPGLPPALPEPPGILAPQPPDVGSSDPFGLVTPSQGRSPSYAS",1 nM
4,"(Q28R, K56R, K59R, K69R, D102T, N121Q, K122R, M168L, Y179F, A180E, S181R) Gly-FGF21 (ligand) GHPIPDSSPLLQFGGQVRQRYLYTDDAQRTEAHLEIREDGTVGGAADQSPESLLQLRALRPGVIQILGVRTSRFLCQRPDGALYGSLHFDPEACSFRELLLETGYNVYQSEAHGLPLHLPGQRSPHRDPAPRGPARFLPLPGLPPALPEPPGILAPQPPDVGSSDPLSLVGPSQGRSPSFER",29 nM
5,Met-FGF21 (ligand) MHPIPDSSPLLQFGGQVRQRYLYTDDAQQTEAHLEIREDGTVGGAADQSPESLLQLKALKPGVIQILGVKTSRFLCQRPDGALYGSLHFDPEACSFRELLLEDGYNVYQSEAHGLPLHLPGNKSPHRDPAPRGPARFLPLPGLPPALPEPPGILAPQPPDVGSSDPLSMVGPSQGRSPSYAS,1.6 nM
6,"(K56R, K59R, K69R, K122R) Gly-FGF21 (ligand) GHPIPDSSPLLQFGGQVRQRYLYTDDAQQTEAHLEIREDGTVGGAADQSPESLLQLRALRPGVIQILGVRTSRFLCQRPDGALYGSLHFDPEACSFRELLLEDGYNVYQSEAHGLPLHLPGNRSPHRDPAPRGPARFLPLPGLPPALPEPPGILAPQPPDVGSSDPLSMVGPSQGRSPSYAS",7.4 nM
7,"(K56R, K59R, K69R, K122R) Gly-FGF21 derivative of Example 54 (ligand, N-alpha1-[4-(16-1H-tetrazol-5-yl-hexadecanoylsulfamoyl)-butyryl] on the N-terminal alpha amino group) GHPIPDSSPLLQFGGQVRQRYLYTDDAQQTEAHLEIREDGTVGGAADQSPESLLQLRALRPGVIQILGVRTSRFLCQRPDGALYGSLHFDPEACSFRELLLEDGYNVYQSEAHGLPLHLPGNRSPHRDPAPRGPARFLPLPGLPPALPEPPGILAPQPPDVGSSDPLSMVGPSQGRSPSYAS",4.2 nM
8,"(K56R, K59R, K69R, K122R) Gly-FGF21 derivative of Example 53 (ligand, N-alpha-1-(2-{2-[2-(16-1H-tetrazol-5-yl-hexadecanoylamino)-ethoxy]-ethoxy}-acetyl) on the N-terminal alpha amino group) GHPIPDSSPLLQFGGQVRQRYLYTDDAQQTEAHLEIREDGTVGGAADQSPESLLQLRALRPGVIQILGVRTSRFLCQRPDGALYGSLHFDPEACSFRELLLEDGYNVYQSEAHGLPLHLPGNRSPHRDPAPRGPARFLPLPGLPPALPEPPGILAPQPPDVGSSDPLSMVGPSQGRSPSYAS",6.4 nM
9,"(K56R, K59R, K69R, K122R) Gly-FGF21 derivative of Example 46 (ligand, N-alpha-1-[2-(2-{2-[2-(2-{2-[(S)-4-carboxy-4-(17-carboxy-heptadecanoylamino)-butyrylamino]-ethoxy}-ethoxy)-acetylamino]-ethoxy}-ethoxy)-acetyl] on the N-terminal alpha amino group) GHPIPDSSPLLQFGGQVRQRYLYTDDAQQTEAHLEIREDGTVGGAADQSPESLLQLRALRPGVIQILGVRTSRFLCQRPDGALYGSLHFDPEACSFRELLLEDGYNVYQSEAHGLPLHLPGNRSPHRDPAPRGPARFLPLPGLPPALPEPPGILAPQPPDVGSSDPLSMVGPSQGRSPSYAS",3.9 nM
10,"(K56R, 59R, 69R, 122R, 168L) Gly-FGF21 derivative of Example 48 (ligand, N-alpha-1-[2-(2-{2-[2-(2-{2-[(S)-4-carboxy-4-(17-carboxy-heptadecanoylamino)-butyrylamino]-ethoxy}-ethoxy)-acetylamino]-ethoxy}-ethoxy)-acetyl] on the N-terminal alpha amino group) GHPIPDSSPLLQFGGQVRQRYLYTDDAQQTEAHLEIREDGTVGGAADQSPESLLQLRALRPGVIQILGVRTSRFLCQRPDGALYGSLHFDPEACSFRELLLEDGYNVYQSEAHGLPLHLPGNRSPHRDPAPRGPARFLPLPGLPPALPEPPGILAPQPPDVGSSDPLSLVGPSQGRSPSYAS",4.6 nM
11,(S71C) Gly-FGF21 (ligand) GHPIPDSSPLLQFGGQVRQRYLYTDDAQQTEAHLEIREDGTVGGAADQSPESLLQLKALKPGVIQILGVKTCRFLCQRPDGALYGSLHFDPEACSFRELLLEDGYNVYQSEAHGLPLHLPGNKSPHRDPAPRGPARFLPLPGLPPALPEPPGILAPQPPDVGSSDPLSMVGPSQGRSPSYAS,2.5 nM
